Like-named read-outs stand apart in the source and are kept apart here.

For data set [1], the target named is EcNusB wt (Escherichia coli, UniProt P0A780 1-139). Nature of the data set: NMR.
Data set [2] has as its target T1, AaNusB;AaNusE (S10) loop deletion (Aquifex aeolicus;Aquifex aeolicus, UniProt O66530;O66430 1-148;1-46+=S+69-104, |internal_change).
T1 sequence 1: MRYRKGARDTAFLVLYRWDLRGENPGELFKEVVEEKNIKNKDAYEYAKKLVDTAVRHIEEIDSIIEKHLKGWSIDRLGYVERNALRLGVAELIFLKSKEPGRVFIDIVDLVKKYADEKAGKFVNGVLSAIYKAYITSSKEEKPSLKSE
T1 sequence 2: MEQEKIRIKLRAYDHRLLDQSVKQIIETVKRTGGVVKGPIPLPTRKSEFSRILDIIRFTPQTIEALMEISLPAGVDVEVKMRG
Nature of the data set: crystal structure.

The target in data set [3] is EcNusB F122D (Escherichia coli, UniProt P0A780 1-139, F122D). Nature of the data set: ITC.
Data set [4] has as its target T1, AaNusB;AaNusE (S10) loop deletion. Nature of the data set: crystal structure. The source holds these as a separate data set.

B1: EcBoxA-BoxB (structured_RNA)
RNA: GCCGCGCCGCUGAGAAAAAGCGAAGCGGCACUGCUCUUUA
As for B1, the binding result in data set [1] is recorded as “binds”.

B2: AaBoxA duplex (dsRNA) (dsRNA)
RNA 1: GGCUCCUUGGCA
RNA 2: GGCUCCUUGGCA
Consider B2, for which the binding result in data set [2] is given as “binds”.

B3: EcBoxA (ssRNA)
RNA: UGCUCUUUAACA
B3: the binding result in data set [3] is reported as “no binding”.

B4: AaBoxA (ssRNA)
RNA: GGCUCCUUGGCA
Regarding B4, the binding result in data set [4] is “binds”.

For the origin of these results see article PMC3177189.
